Positions count from the first letter of the chain named.
Experiments:
[1] = molecular target: T1, recombinant monomeric HIV-1 YU2 gp120, produced in Drosophila S2 cells (HIV-1 YU2, UniProt P35961 32-498, limits assumed, glycosylated (high-mannose glycans are the CVN binding sites)); test: competition ELISA on plate-adsorbed YU2 gp120; competitor mAb 2G12 at 50 ug/ml; percent of control without L5
T1 construct: domain: gp120

[2] = molecular target: T1, recombinant monomeric HIV-1 YU2 gp120, …; test: competition ELISA, adsorbed YU2 gp120, increasing L5 with 2 ug/ml mAb 17b as competitor; inhibition of mAb 17b binding to gp120, ELISA
[3] = molecular target: T1, recombinant monomeric HIV-1 YU2 gp120, …; test: competition ELISA on plate-adsorbed YU2 gp120; competitor mAb F105 at a 1:20,000 dilution; percent of control without L5
[4] = molecular target: T1, recombinant monomeric HIV-1 YU2 gp120, …; test: ELISA, 100 ng YU2 gp120 adsorbed on the plate, serial dilutions of L5, detection with polyclonal anti-CVN, BSA background subtracted
[5] = molecular target: T1, recombinant monomeric HIV-1 YU2 gp120, …; test: competition ELISA on plate-adsorbed YU2 gp120; blocked ligand sCD4 at 0.5 ug/ml, detected with anti-CD4; percent of uninhibited control
[6] = molecular target: T1, recombinant monomeric HIV-1 YU2 gp120, …; test: ELISA, 100 ng YU2 gp120 adsorbed on the plate, serial dilutions of L5-S12p1, detection with polyclonal anti-CVN, BSA background subtracted
Experimental: Error bars indicate standard deviation.
YU2 was adsorbed to a 96-well EIA/RIA plate overnight at 4° C.
Ninety-six well plates (Corning) were coated with either 100 ng of the indicated gp120 or BSA overnight at 4° C. The wells were washed three times with 1×PBS-T (PBS, 0.1% Tween) and non-specific binding blocked with 1% (wt/vol) BSA in PBS. […] After a one hour incubation, the wells were washed and incubated with a 1/2500 dilution of anti-rabbit HRP (Amersham) for one hour at room temperature. The wells were washed three times and the extent of binding was then determined by OPD (o-phenylenediamine, Sigma) and absorbance measured at 450 nm.

[7] = molecular target: T2, HIV-1 SF162 gp120 (Clade B) (HIV-1 SF162, UniProt P19550 32-502); test: ELISA, 100 ng gp120 adsorbed on the plate, 50 nM CVN, detection with polyclonal anti-CVN, BSA background subtracted
T2 construct: domain: gp120

B1: L5 chimera (CVN-12p1): CVN, linker of five Gly4Ser repeats, 12p1, C-terminal hexa-histidine tag (other)
chain: LGKFSQTCYNSAIQGSVLTSTCERTNGGYNTSSIDLNSVIENVDGSLKWQPSNFIETCRNTQLAGSSELAAECKTRAQQFVSTKINLDDHIANIDGTLKYEGSGGGGSGGGGSGGGGSGGGGSGGGGSRINNIPWSEAMMHHHHHH
notes: Fusion protein, about 15 kDa; also called the chimera
IC50 (read off the curve) [1]: ~40 nM | IC50 [2]: 38 nM | IC50 (read off the curve) [3]: ~20 nM | EC50 (read off the curve) [4]: ~9 nM | IC50 (read off the curve) [5]: ~20 nM

B2: L5-S12p1: chimera of CVN, linker of five Gly4Ser repeats and scrambled (non-sense) 12p1 peptide (other)
chain: B1 chain with R129W, I130R, N131I, N132M, I133M, P134I, W135P, M139N, M140N
notes: check the entry type; also called scrambled chimera
EC50 (read off the curve) [6]: ~20 nM

B3: cyanovirin-N (CVN), recombinant, periplasmic expression in E. coli, hexa-histidine tagged (other)
chain: LGKFSQTCYNSAIQGSVLTSTCERTNGGYNTSSIDLNSVIENVDGSLKWQPSNFIETCRNTQLAGSSELAAECKTRAQQFVSTKINLDDHIANIDGTLKYEHHHHHH
notes: Lectin, 11 kDa
binding result [7]: binds

Reference: patent publication US20090233850A1 (PHILADELPHIA HEALTH AND EDUCATION CORPORATION D B A DREXEL …, published 2009)
